Test results published in the supplement of paper PMC5998384.

Assays:
[1] = test system: HeLa Kyoto; assay: thermal stability score vs G1/S (z-score of summed log2 fold changes over temperatures); higher = more thermally stable than in G1/S
[2] = test system: HeLa Kyoto; assay: melting temperature (median over replicates), in situ; higher = more thermally stable
[3] = test system: HeLa Kyoto; assay: solubility in G1/S (NP-40 vs SDS abundance) (log2 ratio); higher = more soluble; settings: cell cycle stage: G1/S
[4] = test system: HeLa Kyoto; assay: solubility change mitosis vs G1/S (difference of NP-40 vs SDS log2 ratios) (log2 ratio difference); higher = more soluble in mitosis
[5] = cell cycle stage: early G1 (4.5 h after nocodazole release)
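For melting temperature (median over replicates), in situ in this document: HeLa Kyoto cells synchronized by double thymidine or nocodazole block, proteins quantified by TMT10plex mass spectrometry, three independent biological replicates.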
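For solubility change mitosis vs G1/S (difference of NP-40 vs SDS log2 ratios) in this document: synchronized HeLa Kyoto cells (double thymidine block for G1/S, nocodazole release for mitosis), protein amounts in NP-40 versus SDS lysates quantified by mass spectrometry, three biological replicates.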
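For solubility in G1/S (NP-40 vs SDS abundance) in this document: HeLa Kyoto cells arrested at G1/S by double thymidine block, proteins quantified by TMT10plex mass spectrometry in mild NP-40 versus SDS extracts, three biological replicates.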
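For thermal stability score vs G1/S (z-score of summed log2 fold changes over temperatures) in this document: synchronized HeLa Kyoto cells, proteins quantified by TMT10plex mass spectrometry, three biological replicates, mitosis taken 0.5 h after nocodazole release, G1/S directly after double thymidine block.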

“MGPGPSRAPRAPRLMLCALALMVAAGGCVVSAFNLDTRFLVVKEAGNPGSLFGYSVALHRQTERQQRYLLLAGAPRELAVPDGYTNRTGAVYLCPLTAHKDDCERMNITVKNDPGHHIIEDMWLGVTVASQGPAGRVLVCAHRYTQVLWSGSEDQRRMVGKCYVRGNDLELDSSDDWQTYHNEMCNSNTDYLETGMCQLGTSGGFTQNTVYFGAPGAYNWKGNSYMIQRKEWDLSEYSYKDPEDQGNLYIGYTMQVGSFILHPKNITIVTGAPRHRHMGAVFLLSQEAGGDLRRRQVLEGSQVGAYFGSAIALADLNNDGWQDLLVGAPYYFERKEEVGGAIYVFMNQAGTSFPAHPSLLLHGPSGSAFGLSVASIGDINQDGFQDIAVGAPFEGLGKVYIYHSSSKGLLRQPQQVIHGEKLGLPGLATFGYSLSGQMDVDENFYPDLLVGSLSDHIVLLRARPVINIVHKTLVPRPAVLDPALCTATSCVQVELCFAYNQSAGNPNYRRNITLAYTLEADRDRRPPRLRFAGSESAVFHGFFSMPEMRCQKLELLLMDNLRDKLRPIIISMNYSLPLRMPDRPRLGLRSLDAYPILNQAQALENHTEVQFQKECGPDNKCESNLQMRAAFVSEQQQKLSRLQYSRDVRKLLLSINVTNTRTSERSGEDAHEALLTLVVPPALLLSSVRPPGACQANETIFCELGNPFKRNQRMELLIAFEVIGVTLHTRDLQVQLQLSTSSHQDNLWPMILTLLVDYTLQTSLSMVNHRLQSFFGGTVMGESGMKTVEDVGSPLKYEFQVGPMGEGLVGLGTLVLGLEWPYEVSNGKWLLYPTEITVHGNGSWPCRPPGDLINPLNLTLSDPGDRPSSPQRRRRQLDPGGGQGPPPVTLAAAKKAKSETVLTCATGRAHCVWLECPIPDAPVVTNVTVKARVWNSTFIEDYRDFDRVRVNGWATLFLRTSIPTINMENKTTWFSVDIDSELVEELPAEIELWLVLVAVGAGLLLLGLIILLLWKCGFFKRARTRALYEAKRQKAEMKSQPSETERLTDDY [ITGA3]” was tested, and the thermal stability score [1, 5] was -0.693, the thermal stability score ([1]; cell cycle stage: mitosis) was -1.42 and the melting temperature ([2]; cell cycle stage: G1/S) was 56.8 °C. For the same sequence, the melting temperature ([2]; cell cycle stage: mitosis) was 59.2 °C, the “solubility in G1/S (log2)” value [3] was 0.0349 and the “solubility change mitosis (log2)” value [4] was 0.0722.

“MGRDTRSRSRSAGRRGRRRQSQSGSRSRSRSHGRRNRRRREDEGRRRRRRRSRERRSDSEEERWQRSGMRSRSPPRPKWHSRDGSSQSDSGEEQSRGQWARRRRRARSWSPSSSASSSASPGRSQSPRAAAAALSQQQSLQERLRLREERKQQEELMKAFETPEEKRARRLAKKEAKERKKREKMGWGEEYMGYTNTDNPFGDNNLLGTFIWNKALEKKGISHLEEKELKERNKRIQEDNRLELQKVKQLRLEREREKAMREQELEMLQREKEAEHFKTWEEQEDNFHLQQAKLRSKIRIRDGRAKPIDLLAKYISAEDDDLAVEMHEPYTFLNGLTVADMEDLLEDIQVYMELEQGKNADFWRDMTTITEDEISKLRKLEASGKGPGERREGVNASVSSDVQSVFKGKTYNQLQVIFQGIEGKIRAGGPNLDMGYWESLLQQLRAHMARARLRERHQDVLRQKLYKLKQEQGVESEPLFPILKQEPQSPSRSLEPEDAAPTPPGPSSEGGPAEAEVDGATPTEGDGDGDGEGEGEGEAVLMEEDLIQQSLDDYDAGRYSPRLLTAHELPLDAHVLEPDEDLQRLQLSRQQLQVTGDASESAEDIFFRRAKEGMGQDEAQFSVEMPLTGKAYLWADKYRPRKPRFFNRVHTGFEWNKYNQTHYDFDNPPPKIVQGYKFNIFYPDLIDKRSTPEYFLEACADNKDFAILRFHAGPPYEDIAFKIVNREWEYSHRHGFRCQFANGIFQLWFHFKRYRYRR [CACTIN]” was tested, and the thermal stability score [1, 5] was 0.527, the thermal stability score ([1]; cell cycle stage: mitosis) was 0.928 and the melting temperature ([2]; cell cycle stage: G1/S) was 47.9 °C. For the same sequence, the melting temperature ([2]; cell cycle stage: mitosis) was 50.4 °C, the “solubility in G1/S (log2)” value [3] was -0.924 and the “solubility change mitosis (log2)” value [4] was 0.985.

Sequence “MGRGWGFLFGLLGAVWLLSSGHGEEQPPETAAQRCFCQVSGYLDDCTCDVETIDRFNNYRLFPRLQKLLESDYFRYYKVNLKRPCPFWNDISQCGRRDCAVKPCQSDEVPDGIKSASYKYSEEANNLIEECEQAERLGAVDESLSEETQKAVLQWTKHDDSSDNFCEADDIQSPEAEYVDLLLNPERYTGYKGPDAWKIWNVIYEENCFKPQTIKRPLNPLASGQGTSEENTFYSWLEGLCVEKRAFYRLISGLHASINVHLSARYLLQETWLEKKWGHNITEFQQRFDGILTEGEGPRRLKNLYFLYLIELRALSKVLPFFERPDFQLFTGNKIQDEENKMLLLEILHEIKSFPLHFDENSFFAGDKKEAHKLKEDFRLHFRNISRIMDCVGCFKCRLWGKLQTQGLGTALKILFSEKLIANMPESGPSYEFHLTRQEIVSLFNAFGRISTSVKELENFRNLLQNIH [ERO1A]” has a thermal stability score [1, 5] of 5.02, a thermal stability score ([1]; cell cycle stage: mitosis) of 7.63 and a melting temperature ([2]; cell cycle stage: G1/S) of 54.2 °C. For the same sequence, the melting temperature ([2]; cell cycle stage: mitosis) was 54.6 °C, the “solubility in G1/S (log2)” value [3] was 0.338 and the “solubility change mitosis (log2)” value [4] was -0.161.

For “MGRKLDPTKEKRGPGRKARKQKGAETELVRFLPAVSDENSKRLSSRARKRAAKRRLGSVEAPKTNKSPEAKPLPGKLPKGISAGAVQTAGKKGPQSLFNAPRGKKRPAPGSDEEEEEEDSEEDGMVNHGDLWGSEDDADTVDDYGADSNSEDEEEGEALLPIERAARKQKAREAAAGIQWSEEETEDEEEEKEVTPESGPPKVEEADGGLQINVDEEPFVLPPAGEMEQDAQAPDLQRVHKRIQDIVGILRDFGAQREEGRSRSEYLNRLKKDLAIYYSYGDFLLGKLMDLFPLSELVEFLEANEVPRPVTLRTNTLKTRRRDLAQALINRGVNLDPLGKWSKTGLVVYDSSVPIGATPEYLAGHYMLQGASSMLPVMALAPQEHERILDMCCAPGGKTSYMAQLMKNTGVILANDANAERLKSVVGNLHRLGVTNTIISHYDGRQFPKVVGGFDRVLLDAPCSGTGVISKDPAVKTNKDEKDILRCAHLQKELLLSAIDSVNATSKTGGYLVYCTCSITVEENEWVVDYALKKRNVRLVPTGLDFGQEGFTRFRERRFHPSLRSTRRFYPHTHNMDGFFIAKFKKFSNSIPQSQTGNSETATPTNVDLPQVIPKSENSSQPAKKAKGAAKTKQQLQKQQHPKKASFQKLNGISKGADSELSTVPSVTKTQASSSFQDSSQPAGKAEGIREPKVTGKLKQRSPKLQSSKKVAFLRQNAPPKGTDTQTPAVLSPSKTQATLKPKDHHQPLGRAKGVEKQQLPEQPFEKAAFQKQNDTPKGPQPPTVSPIRSSRPPPAKRKKSQSRGNSQLLLS [NOP2]”, the thermal stability score [1, 5] was -0.377, the thermal stability score ([1]; cell cycle stage: mitosis) was -6.17 and the melting temperature ([2]; cell cycle stage: G1/S) was 55.4 °C. For the same sequence, the melting temperature ([2]; cell cycle stage: mitosis) was 53.9 °C, the “solubility in G1/S (log2)” value [3] was -2.12 and the “solubility change mitosis (log2)” value [4] was 0.976.

“MGRRRAPAGGSLGRALMRHQTQRSRSHRHTDSWLHTSELNDGYDWGRLNLQSVTEQSSLDDFLATAELAGTEFVAEKLNIKFVPAEARTGLLSFEESQRIKKLHEENKQFLCIPRRPNWNQNTTPEELKQAEKDNFLEWRRQLVRLEEEQKLILTPFERNLDFWRQLWRVIERSDIVVQIVDARNPLLFRCEDLECYVKEMDANKENVILINKADLLTAEQRSAWAMYFEKEDVKVIFWSALAGAIPLNGDSEEEANRDDRQSNTTKFGHSSFDQAEISHSESEHLPARDSPSLSENPTTDEDDSEYEDCPEEEEDDWQTCSEEDGPKEEDCSQDWKESSTADSEARSRKTPQKRQIHNFSHLVSKQELLELFKELHTGRKVKDGQLTVGLVGYPNVGKSSTINTIMGNKKVSVSATPGHTKHFQTLYVEPGLCLCDCPGLVMPSFVSTKAEMTCSGILPIDQMRDHVPPVSLVCQNIPRHVLEATYGINIITPREDEDPHRPPTSEELLTAYGYMRGFMTAHGQPDQPRSARYILKDYVSGKLLYCHPPPGRDPVTFQHQHQRLLENKMNSDEIKMQLGRNKKAKQIENIVDKTFFHQENVRALTKGVQAVMGYKPGSGVVTASTASSENGAGKPWKKHGNRNKKEKSRRLYKHLDM [LSG1]” gave a thermal stability score [1, 5] of 0.926, a thermal stability score ([1]; cell cycle stage: mitosis) of 1.89 and a melting temperature ([2]; cell cycle stage: G1/S) of 49 °C. The melting temperature ([2]; cell cycle stage: mitosis) was 49 °C, the “solubility in G1/S (log2)” value [3] was -0.366 and the “solubility change mitosis (log2)” value [4] was 0.0936.

In the case of “MGRTSKDKRDVYYRLAKENGWRARSAFKLLQLDKEFQLFQGVTRAVDLCAAPGSWSQVLSQKIGGQGSGHVVAVDLQAMAPLPGVVQIQGDITQLSTAKEIIQHFKGCPADLVVCDGAPDVTGLHDVDEYMQAQLLLAALNIATHVLKPGGCFVAKIFRGRDVTLLYSQLQVFFSSVLCAKPRSSRNSSIEAFAVCQGYDPPEGFIPDLSKPLLDHSYDPDFNQLDGPTRIIVPFVTCGDLSSYDSDRSYPLDLEGGSEYKYTPPTQPPISPPYQEACTLKRKGQLAKEIRPQDCPISRVDTFPQPLAAPQCHTLLAPEMEDNEMSCSP [FTSJ1]”, the thermal stability score [1, 5] is reported as -0.919, the thermal stability score ([1]; cell cycle stage: mitosis) is reported as -0.299 and the melting temperature ([2]; cell cycle stage: G1/S) is reported as 51.4 °C. The melting temperature ([2]; cell cycle stage: mitosis) was 50.5 °C, the “solubility in G1/S (log2)” value [3] was 0.332 and the “solubility change mitosis (log2)” value [4] was 0.07.
